Experimental data published in PMC6820745, “Structural and thermodynamic basis for the recognition of the substrate-binding cleft on hen egg lysozyme by a single-domain antibody” (Scientific Reports, 2019).

Columns and labels:
[1] = target: hen egg lysozyme (hen) (UniProt P00698); test: ITC; iTC200; 25 °C; PBS; VHH (10 uM) in the cell titrated with HEL (100 uM); 1:1 binding model
[2] = target: hen egg lysozyme (hen) (UniProt P00698); test: SPR; as a1, but KD from the responses in equilibrium (Scatchard plot, 1:1 model); HEL immobilised; 25 °C; PBS with 0.005% Tween 20
[3] = target: T1, hen egg lysozyme (hen, UniProt P00698 19-147); test: ITC; iTC200, 25 °C, PBS; VHH (10 µM) in the cell titrated with HEL (100 µM); 1:1 binding model; two independent measurements; settings: both partners purified
T1 construct: hen egg lysozyme (HEL), bought, used without further purification; also called HEL; source: bought: Wako Pure Chemical (Cat. No. 126-02671)
T1 sequence (P00698 19-147): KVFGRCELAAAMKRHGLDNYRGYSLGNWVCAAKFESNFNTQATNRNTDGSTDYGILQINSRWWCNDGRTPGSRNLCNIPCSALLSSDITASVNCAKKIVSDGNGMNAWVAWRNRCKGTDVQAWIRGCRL

[4] = target: hen egg lysozyme (hen) (UniProt P00698); test: SPR; Biacore T200; HEL immobilised on CM5 chip (200 RU); VHH flowed over; 25 °C; PBS with 0.005% Tween 20; global fit to a 1:1 binding model
[5] = target: T1, hen egg lysozyme; test: SPR; HEL immobilised on CM5 chip (200 RU), VHH flowed over, multi-cycle, 10 °C, PBS with 0.005% Tween 20, global fit to a 1:1 binding model; settings: both partners purified
[6] = target: T1, hen egg lysozyme; test: SPR; HEL immobilised on CM5 chip (200 RU), VHH flowed over, multi-cycle, 14 °C, PBS with 0.005% Tween 20, global fit to a 1:1 binding model; settings: both partners purified
[7] = target: T1, hen egg lysozyme; test: SPR; HEL immobilised on CM5 chip (200 RU), VHH flowed over, multi-cycle, 18 °C, PBS with 0.005% Tween 20, global fit to a 1:1 binding model; settings: both partners purified
[8] = target: T1, hen egg lysozyme; test: SPR; HEL immobilised on CM5 chip (200 RU), VHH flowed over, multi-cycle, 22 °C, PBS with 0.005% Tween 20, global fit to a 1:1 binding model; settings: both partners purified
[9] = target: T1, hen egg lysozyme; test: SPR; HEL immobilised on CM5 chip (200 RU), VHH flowed over, multi-cycle, 26 °C, PBS with 0.005% Tween 20, global fit to a 1:1 binding model; settings: both partners purified
[10] = target: T1, hen egg lysozyme; test: SPR; HEL immobilised on CM5 chip (200 RU), VHH flowed over, 10 °C, PBS with 0.005% Tween 20, steady-state responses (Scatchard plot), 1:1 binding model; settings: both partners purified
[11] = target: T1, hen egg lysozyme; test: SPR; HEL immobilised on CM5 chip (200 RU), VHH flowed over, 14 °C, PBS with 0.005% Tween 20, steady-state responses (Scatchard plot), 1:1 binding model; settings: both partners purified
[12] = target: T1, hen egg lysozyme; test: SPR; HEL immobilised on CM5 chip (200 RU), VHH flowed over, 18 °C, PBS with 0.005% Tween 20, steady-state responses (Scatchard plot), 1:1 binding model; settings: both partners purified
[13] = target: T1, hen egg lysozyme; test: SPR; HEL immobilised on CM5 chip (200 RU), VHH flowed over, 22 °C, PBS with 0.005% Tween 20, steady-state responses (Scatchard plot), 1:1 binding model; settings: both partners purified
[14] = target: T1, hen egg lysozyme; test: SPR; HEL immobilised on CM5 chip (200 RU), VHH flowed over, 26 °C, PBS with 0.005% Tween 20, steady-state responses (Scatchard plot), 1:1 binding model; settings: both partners purified
[15] = target: T1, hen egg lysozyme; test: SPR; HEL immobilised on CM5 chip (200 RU), VHH flowed over, 30 °C, PBS with 0.005% Tween 20, steady-state responses (Scatchard plot), 1:1 binding model; settings: both partners purified
[16] = target: hen egg lysozyme (hen) (UniProt P00698); test: SPR; HEL immobilised; measured at several temperatures; van't Hoff analysis (non-linear regression); PBS with 0.005% Tween 20; KD given for 25 °C from the van't Hoff free energy
[17] = target: T2, hen egg lysozyme (Gallus gallus (hen), UniProt P00698); test: ITC; iTC200; 25 °C; PBS; VHH (10 uM) in the cell titrated with HEL (100 uM); 1:1 binding model; settings: both partners purified
T2 construct: hen egg lysozyme (lysozyme C), bought from Wako Pure Chemical; also called HEL; source: bought: Wako Pure Chemical (Cat. No. 126-02671), used without further purification
T2 sequence (P00698 19-147): as above

[18] = target: T2, hen egg lysozyme; test: SPR; as a1, but KD from the responses in equilibrium (Scatchard plot, 1:1 model); HEL immobilised; 25 °C; PBS with 0.005% Tween 20; settings: both partners purified
[19] = target: T2, hen egg lysozyme; test: SPR; Biacore T200; HEL immobilised on CM5 chip (200 RU); VHH flowed over; 25 °C; PBS with 0.005% Tween 20; global fit to a 1:1 binding model; settings: both partners purified
Summary of the method: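 Binding of the His6-tagged single-domain antibody, expressed in E. coli BL21(DE3) and purified by Ni-NTA and size-exclusion chromatography, was measured by surface plasmon resonance on a Biacore T200 against hen egg lysozyme immobilised on a CM5 chip (200 RU). Runs were at 25 °C in PBS with 0.005% Tween 20, with 300 s contact, 600 s dissociation and regeneration in 1.0 M Arg-HCl pH 4.4. Antibody concentrations were adjusted per mutant. Kd, kon and koff came from global fitting to a 1:1 binding model in BiaEvaluation.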

[20] = target: T2, hen egg lysozyme; test: SPR; HEL immobilised; measured at several temperatures; van't Hoff analysis (non-linear regression); PBS with 0.005% Tween 20; KD given for 25 °C from the van't Hoff free energy; settings: both partners purified
[21] = target: T2, hen egg lysozyme; test: as above; settings: both partners purified; remark: listed apart in the source

hen egg lysozyme (hen), sequence (P00698 19-147): as above

B1: D3-L11 Y102A (VHH)
VHH: DVQLVESGGGSVQAGGSLRLSCAASGSTDSIEYMTWFRQAPGKAREGVAALYTHTGNTYYTDSVKGRFTISQDKAKNMAYLRMDSVKSEDTAIYTCGATRKAVPVRFALDQSSYDYWGQGTQVTVSS
notes: the substitution is still to be applied; source: E. coli BL21(DE3), purified (Ni-NTA, SEC)
How did the ddH against WT antibody (ITC) [1] turn out when B1 was run?
Its ddH against WT antibody (ITC) is 4.8 kcal/mol.

And the Kd [2]?
Its Kd is 635 nM.

And the Kd [3]?
Its Kd is 1800 nM.

What about the “stoichiometry N” value [3] of the same binder?
Its value is 1.23.

What about the Kd [4] of the same binder?
Its Kd is 295 nM.

And the koff [4]?
Its koff is 0.686 s⁻¹.

What about the kon [4] of the same binder?
Its kon is 2.32e+06 M⁻¹ s⁻¹.

What about the Kd [5] of the same binder?
The Kd was 100 nM.

What about the koff [5] of the same binder?
The koff was 0.116 s⁻¹.

And the kon [5]?
The kon was 1.15e+06 M⁻¹ s⁻¹.

And the Kd [6]?
Its Kd is 146 nM.

What about the koff [6] of the same binder?
Its koff is 0.201 s⁻¹.

What about the kon [6] of the same binder?
The kon was 1.38e+06 M⁻¹ s⁻¹.

And the Kd [7]?
The Kd was 191 nM.

And the koff [7]?
Its koff is 0.309 s⁻¹.

What about the kon [7] of the same binder?
Its kon is 1.62e+06 M⁻¹ s⁻¹.

And the Kd [8]?
Its Kd is 233 nM.

What about the koff [8] of the same binder?
Its koff is 0.479 s⁻¹.

What about the kon [8] of the same binder?
The kon was 2.06e+06 M⁻¹ s⁻¹.

What about the Kd [9] of the same binder?
The Kd was 418 nM.

And the koff [9]?
Its koff is 0.83 s⁻¹.

What about the kon [9] of the same binder?
Its kon is 1.99e+06 M⁻¹ s⁻¹.

What about the Kd [10] of the same binder?
The Kd was 303 ± 32 nM.

What about the Kd [11] of the same binder?
Its Kd is 348 ± 42 nM.

And the Kd [12]?
Its Kd is 429 ± 48 nM.

And the Kd [13]?
Its Kd is 529 ± 55 nM.

And the Kd [14]?
The Kd was 658 ± 64 nM.

What about the Kd [15] of the same binder?
The Kd was 867 ± 70 nM.

What about the Kd [16] of the same binder?
The Kd was 413 nM.

And the dH (van't Hoff) [16]?
Its dH (van't Hoff) is -12 kcal/mol.

B2: D3-L11 Y52A (VHH)
VHH: DVQLVESGGGSVQAGGSLRLSCAASGSTDSIEYMTWFRQAPGKAREGVAALATHTGNTYYTDSVKGRFTISQDKAKNMAYLRMDSVKSEDTAIYTCGATRKYVPVRFALDQSSYDYWGQGTQVTVSS
notes: as the VHH chain of m2 with the stated change; source: E. coli BL21(DE3), purified (Ni-NTA, SEC)
Which results are given for B2?
ddH against WT antibody (ITC) [17]: 9.1 ± 1.4 kcal/mol; Kd [18]: 144 ± 22 nM; Kd [19]: 46.1 nM; koff [19]: 0.128 s⁻¹; kon [19]: 2.77e+06 M⁻¹ s⁻¹; Kd [20]: 46 ± 19 nM; dH (van't Hoff) [21]: -11 kcal/mol
